Reference: publication PMC12230644, “A Bacteriophage‐Derived Primase‐Helicase Orchestrates Plant Organellar DNA Replication” (Physiologia Plantarum, 2025)
Where “and” joins values, the source holds several entries; their conditions need not be identical. Equal values may be shown once.

T1: AtTwinkle (Arabidopsis thaliana, UniProt B5X582 92-709)
T1 sequence: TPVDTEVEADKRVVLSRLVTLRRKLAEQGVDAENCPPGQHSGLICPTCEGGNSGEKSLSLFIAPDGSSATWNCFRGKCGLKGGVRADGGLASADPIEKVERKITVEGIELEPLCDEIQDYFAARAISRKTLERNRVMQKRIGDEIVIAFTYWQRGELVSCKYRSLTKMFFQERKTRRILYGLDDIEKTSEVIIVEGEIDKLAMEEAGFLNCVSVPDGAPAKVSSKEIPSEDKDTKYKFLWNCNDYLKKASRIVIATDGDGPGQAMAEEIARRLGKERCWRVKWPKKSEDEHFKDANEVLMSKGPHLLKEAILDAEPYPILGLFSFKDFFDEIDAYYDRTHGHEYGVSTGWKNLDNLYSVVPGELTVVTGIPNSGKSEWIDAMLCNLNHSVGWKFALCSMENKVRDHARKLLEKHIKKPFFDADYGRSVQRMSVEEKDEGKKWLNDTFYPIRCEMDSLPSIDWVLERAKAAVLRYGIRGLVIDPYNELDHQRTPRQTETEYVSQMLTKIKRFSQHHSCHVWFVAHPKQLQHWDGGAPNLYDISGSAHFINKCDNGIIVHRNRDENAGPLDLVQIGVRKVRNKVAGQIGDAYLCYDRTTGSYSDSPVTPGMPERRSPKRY

T2: AtPolIA (Arabidopsis thaliana, UniProt F4I6M1 92-1050)
T2 sequence: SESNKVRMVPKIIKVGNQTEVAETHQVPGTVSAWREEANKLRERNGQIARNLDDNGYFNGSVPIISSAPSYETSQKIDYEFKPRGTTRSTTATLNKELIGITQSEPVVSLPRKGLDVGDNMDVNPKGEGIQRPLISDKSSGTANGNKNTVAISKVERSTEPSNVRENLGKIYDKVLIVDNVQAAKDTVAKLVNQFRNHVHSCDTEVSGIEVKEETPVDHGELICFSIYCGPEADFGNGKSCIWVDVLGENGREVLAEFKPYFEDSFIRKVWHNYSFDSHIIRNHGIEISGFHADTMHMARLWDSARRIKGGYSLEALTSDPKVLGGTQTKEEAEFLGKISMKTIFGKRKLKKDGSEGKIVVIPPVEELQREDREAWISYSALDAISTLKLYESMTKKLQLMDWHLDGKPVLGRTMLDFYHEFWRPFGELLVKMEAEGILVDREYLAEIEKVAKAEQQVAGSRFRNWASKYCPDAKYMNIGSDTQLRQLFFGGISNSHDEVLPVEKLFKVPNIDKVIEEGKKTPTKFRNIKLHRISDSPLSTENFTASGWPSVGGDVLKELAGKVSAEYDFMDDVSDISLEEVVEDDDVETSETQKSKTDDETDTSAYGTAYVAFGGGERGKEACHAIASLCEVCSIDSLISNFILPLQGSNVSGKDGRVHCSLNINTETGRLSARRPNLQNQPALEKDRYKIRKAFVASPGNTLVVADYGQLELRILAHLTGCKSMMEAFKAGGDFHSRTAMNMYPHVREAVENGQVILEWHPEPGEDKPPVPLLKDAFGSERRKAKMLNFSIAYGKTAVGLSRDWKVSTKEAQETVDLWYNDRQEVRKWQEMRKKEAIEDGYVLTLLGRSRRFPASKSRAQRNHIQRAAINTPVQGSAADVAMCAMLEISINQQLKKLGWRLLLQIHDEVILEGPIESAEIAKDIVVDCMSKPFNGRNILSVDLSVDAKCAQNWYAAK

B1: AtHelicase (helicase domain of AtTwinkle) (domain or fragment, Arabidopsis thaliana, UniProt B5X582 402-709, looked up)
chain: ILDAEPYPILGLFSFKDFFDEIDAYYDRTHGHEYGVSTGWKNLDNLYSVVPGELTVVTGIPNSGKSEWIDAMLCNLNHSVGWKFALCSMENKVRDHARKLLEKHIKKPFFDADYGRSVQRMSVEEKDEGKKWLNDTFYPIRCEMDSLPSIDWVLERAKAAVLRYGIRGLVIDPYNELDHQRTPRQTETEYVSQMLTKIKRFSQHHSCHVWFVAHPKQLQHWDGGAPNLYDISGSAHFINKCDNGIIVHRNRDENAGPLDLVQIGVRKVRNKVAGQIGDAYLCYDRTTGSYSDSPVTPGMPERRSPKRY
notes: AtTwinkle, Arabidopsis thaliana, AT1G30680, helicase domain, residues 402-709; Modified pET28-SUMO vector; also called helicase module of AtTwinkle; wild‐type AtHelicase; source: E. coli BL21(DE3) with pKJ7 chaperones, purified (Ni‐NTA, heparin, Superdex 200)
B2: AtHelicaseΔ10 (AtHelicase lacking the last 10 amino acids) (domain or fragment)
chain: ILDAEPYPILGLFSFKDFFDEIDAYYDRTHGHEYGVSTGWKNLDNLYSVVPGELTVVTGIPNSGKSEWIDAMLCNLNHSVGWKFALCSMENKVRDHARKLLEKHIKKPFFDADYGRSVQRMSVEEKDEGKKWLNDTFYPIRCEMDSLPSIDWVLERAKAAVLRYGIRGLVIDPYNELDHQRTPRQTETEYVSQMLTKIKRFSQHHSCHVWFVAHPKQLQHWDGGAPNLYDISGSAHFINKCDNGIIVHRNRDENAGPLDLVQIGVRKVRNKVAGQIGDAYLCYDRTTGSYSDSPVTPG
B3: AtTwinkle (bacteriophage‐related primase‐helicase from Arabidopsis thaliana), processed form (enzyme, UniProt B5X582 92-709, looked up)
chain: TPVDTEVEADKRVVLSRLVTLRRKLAEQGVDAENCPPGQHSGLICPTCEGGNSGEKSLSLFIAPDGSSATWNCFRGKCGLKGGVRADGGLASADPIEKVERKITVEGIELEPLCDEIQDYFAARAISRKTLERNRVMQKRIGDEIVIAFTYWQRGELVSCKYRSLTKMFFQERKTRRILYGLDDIEKTSEVIIVEGEIDKLAMEEAGFLNCVSVPDGAPAKVSSKEIPSEDKDTKYKFLWNCNDYLKKASRIVIATDGDGPGQAMAEEIARRLGKERCWRVKWPKKSEDEHFKDANEVLMSKGPHLLKEAILDAEPYPILGLFSFKDFFDEIDAYYDRTHGHEYGVSTGWKNLDNLYSVVPGELTVVTGIPNSGKSEWIDAMLCNLNHSVGWKFALCSMENKVRDHARKLLEKHIKKPFFDADYGRSVQRMSVEEKDEGKKWLNDTFYPIRCEMDSLPSIDWVLERAKAAVLRYGIRGLVIDPYNELDHQRTPRQTETEYVSQMLTKIKRFSQHHSCHVWFVAHPKQLQHWDGGAPNLYDISGSAHFINKCDNGIIVHRNRDENAGPLDLVQIGVRKVRNKVAGQIGDAYLCYDRTTGSYSDSPVTPGMPERRSPKRY
notes: codon-optimised gene; The results call this construct 'full-length'; the methods give residues 92-709; The oligomer size is told differently in text (nonamer and a larger complex) and legend (hexamer), so copies is left empty; The methods name pET19b for cloning and pCRI1b-AtTwinkle for mutagenesis; also called plant Twinkle; full‐length AtTwinkle; source: E. coli BL21(DE3) with pKJ7 chaperones, …
B4: replication fork OligoJ+OligoK+OligoL (mixed)
DNA 1: AGCTATGACCATGATTAC
DNA 2: AGCTACCATGCCTGCACGAATTAAGCAATTCGTAATCATGGTCATAGCT
DNA 3: CAACTGCTCCGATGCCTTACCGTGCTTAATTCGTGCAGGCATGGTAGCT

Legend:
[1] = molecular target: the molecule itself; test: SEC; Superdex 200 gel filtration column calibrated with thyroglobulin, γ‐globulin, ovalbumin and myoglobin; in the absence of metal ions and nucleotides; size of the oligomer from the apparent mass
[2] = molecular target: AtPolIB (Arabidopsis thaliana organellar DNA polymerase IB) (Arabidopsis thaliana); test: MST; fluorescently labelled AtPolIB (His‐tag labelling kit) at constant concentration, AtHelicase or AtHelicase‐Δ10 titrated; PBS with 0.05% Tween‐20; NanoTemper Monolith NT.115p; no DNA
[3] = molecular target: T1, AtTwinkle; test: EMSA; no polymerase; EMSA on 8% polyacrylamide gel; binding buffer, pH and temperature not given in the material (helicase assays: 20 mM Bis-Tris-Propane pH 7.5, 10 mM MgCl2, 10 mM); details: protein: recombinant; tags: His tag (pET19b; mutagenesis section names pCRI1b-AtTwinkle); chain copies: 6; label: OligoJ 5'-Cy2; fork, strands 1:2 (18 bp) and 2:3 (27 bp); 4 nt gap on template; 22 nt 5' ssDNA tail on strand 3
[4] = molecular target: T2, AtPolIA; test: EMSA; no AtTwinkle; EMSA on 8% polyacrylamide gel; binding buffer, pH and temperature not given in the material (helicase assays: 20 mM Bis-Tris-Propane pH 7.5, 10 mM MgCl2, 10 mM); details: protein: recombinant; tags: Cy5-labeled; label: OligoJ 5'-Cy2; fork, strands 1:2 (18 bp) and 2:3 (27 bp); 4 nt gap on template; 22 nt 5' ssDNA tail on strand 3
[5] = molecular target: AtTwinkle;AtPolIA (Arabidopsis thaliana;Arabidopsis …, UniProt B5X582;F4I6M1 92-709;92-1050, |); test: EMSA; constant AtPolIA, high AtTwinkle; Cy2/Cy5 (orange) band at gel top, AtPolIA-DNA band disappears; EMSA on 8% polyacrylamide gel; binding buffer, pH and temperature not given in the material (helicase assays: 20 mM Bis-Tris-Propane pH 7.5, 10 mM MgCl2, 10 mM); details: protein: recombinant;recombinant; tags: His tag (pET19b; mutagenesis section names pCRI1b-AtTwinkle);Cy5-labeled; label: OligoJ 5'-Cy2; fork, strands 1:2 (18 bp) and 2:3 (27 bp); 4 nt gap on template; 22 nt 5' ssDNA tail on strand 3

Binder | stoichiometry N [1] | Kd [2] [nM] | binding result [3] | binding result [4] | binding result [5]
B1 | 6 | 210 |  |  | 
B2 |  | 3640 |  |  | 
B3 | 9 and 6 |  |  |  | 
B4 |  |  | binds | binds | binds
